Here are results for 3 molecules from patent US6210929A, “Fusion protein comprising a furin derivative or a derivative of a furin analogue and a heterologous sequence” (Baxter Aktiengesellschaft, priority 1995, dated 2001).

The subject of data set [1] is pro-vWF. The data set can be described thus: Co-expression of pro-vWF and r-furin in CHO cells, Western blot of cell culture supernatants. It counts as cell-based, human. An excerpt:
The expression plasmid for rvWF, phAct-vWF (FIG. 1), was co-transfected with the selection marker plasmid pSV-rdhfr (FIG. 1) in dhfr-deficient CHO cells, the efficiently pro-rvWF-expressing clone CHO-rvWF was selected under selection conditions, and this clone was sub-cloned to stability (Fischer et al., 1994. Febs Lett. 351:345-349). For a further analysis and for rvWF expression and function studies, the cells were at first washed with PBS several times, and subsequently, unless indicated otherwise, incubated in selection medium without serum, with a regular 24 hour medium exchange.
Approximately 40% of the rvWF secreted into the cell supernatant of CHO-rvWF was unprocessed (FIG. 2 II A). To increase the efficiency of the propeptide cleavage, the r-furin expression vector pSV-r-furink in the following was co-transfected with the selection marker plasmid pUCSV-neo into the CHO-rvWF cell clone. Under selection conditions (500 μg G418/ml), clones were identified which express r-furin in addition to rvWF (CHO-rvWF/r-furin; FIGS. 2 I A, B).
The detection of rvWF in the cell culture supernatant was effected by means of Western blot analysis (FIGS. 2 I A and II A). For this, 10 μl of reduced cell culture supernatant were separated by means of SDS-PAGE (Lammli, Nature 227:680-685, 1970), and subsequently the proteins were transferred to nitrocellulose membranes by means of the BioRad Mini Trans-Blot System (BioRad Laboratories, Richmond, Calif., USA). The Protoblot-System from Promega (Madison, Wis., USA) was used to visualize rvWF secreted into the cell culture supernatant. Rabbit anti-vWF serum (Order No. A 082) from Dakopatts (Glostrup, Denmark) was used as the antibody for vWF binding.
The detection of r-furin in the cell culture supernatant was also effected by means of Western blot analysis (FIGS. 2 I B and II B). r-Furin was visualized by using the anti-h-furin murine monoclonal antibody MON 148 (van Duijnhoven et al., Hybridoma 11: 71-86, 1992) and, as the second antibody, anti-murine IgG alkaline phosphatase conjugated goat serum (Sigma A 4656).
Background: A western blot detects proteins with antibodies after separation by electrophoresis.

For data set [2], the system named is pro-rvWF. The data set can be described thus: In vitro cleavage of pro-rvWF by r-furin or fusion protein, Western blot analysis. It counts as biochemical, human. The following applies: for in vitro processing of pro-rvWF in mixed supernatants: CHO-rvWF/r-furin and CHO-rvWF supernatants 1:1, 37° C. As to the method: CHO-rvWF, CHO-rvWF/r-furin, CHO-rvWF and CHO (at a ration of 1:1), as well as CHO-rvWF and CHO-rvWF/r-furin (at a ration of 1:1) were mixed accordingly and incubated at 37° C.
Aliquots of the reaction formulations were tested for processed vWF by means of Western blot analysis immediately before incubation and after mixing of the cell culture supernatants, respectively; further aliquots were taken at time intervals of 24 hours each and assayed.
For this, 20 ml of serum-free cell culture supernatant of CHO-rvWF cells, adjusted to 2 mM imidazole, were passed over the column. […] Samples of the cell culture supernatant which were not subjected to a protease treatment served as the controls.
The negative control, an unmanipulated CHO cell culture supernatant (without r-furinΔCys-spacer-10xHis) was processed in an analogous manner on the Ni^2+ -NTA matrix.
Aliquots of the reaction mixtures were taken at the beginning of the test as well as at various points of time and frozen.
The Fractogel EMD® tentacle gel was loaded with Ni^2+ ions according to the manufacturer's instructions and equilibrated with fresh serum-free cell culture medium. Subsequently, the column was loaded with serum-free CHO-r-furinΔCys-spacer-10xHis supernatant. Washing steps were effected by serum-free cell culture medium, containing increasing imidazol concentrations up to 40 mM. Subsequently, the pro-protein substrate was guided over the column as serum-free CHO supernatant.

The test system of data set [3] is Boc-Arg-Val-Arg-Arg-AMC. The data set is described as follows: AMC peptide substrate test (fluorogenic substrate test) of furin or fusion protein activity. It counts as biochemical. The following applies: for Intensity of the fluorescent emission at 438 nm: supernatants of permanent CHO cell clones, 2 hours of incubation, 30° C. As to the method:
By the action of furin, AMC (7-amino-4-methyl coumarin) is cleaved from the substrate. […] The fluorescent spectroscopic detection of the furin or fusion protein activity was effected at 30° C. in stirred quartz cells in a test volume of 2 ml. 1.7 ml of 100 mM HEPES buffer (pH 7.4, 1 mM CaCl2 and 1 mM 2-mercaptoethanol) were mixed with 0.1 ml of a substrate solution (final substrate concentration in the test: 0.1 mM) and 0.2 ml of the sample. The fluorescence was excited at a wave length of 380 nm. After 2 hours of incubation, the fluorescent emission was measured at 438 nm (Table 1).
The supernatants of various permanent CHO-r-furinΔTM-His cell clones and, as the controls, of CHO-rvWF/r-furin cells and CHO cells were subjected to the AMC peptide substrate test. The intensity of the fluorescent emission at 438 nm reflects the activity.
The activity of CHO-r-furinΔTM-His cells from cell culture supernatants before their binding to the column matrix, the individual washing fractions as well as the eluate were determined by means of AMC peptide substrate test.
The influence of imidazole on the furin activity was determined.
For this, 1 ml of Ni^2 +-NTA matrix (Quiagen), equilibrated in serum-free cell culture medium was loaded at 4° C. with 10 ml of imidazole-free CHO-r-furinΔCys-spacer-10xHis cell culture supernatant, and, as the negative control, with conditioned medium of non-manipulated CHO cells, respectively. Then the matrix was washed three times at room temperature with serum-free cell culture medium, and subsequently the fluorogenic substrate was contacted at 30° C. with immobilized r-furinΔCys-spacer-10xHis. As the positive control, CHO-r-furinΔCys-spacer-10xHis cell culture supernatant was tested for its ability to react fluorogenic substrate in solution.

Data set [4] deals with single-chain rFX. The data set can be described thus: In vitro cleavage of the propeptide and processing of single-chain rFX, Western blot analysis. It counts as biochemical, human.
Method: Aliquots each of the reactions were tested for processed rFX by means of Western blot analysis prior to incubation (t=0) and after various incubation periods (t=2, 4, 6 hours) (FIG. 10). The detection of rFX in the cell culture supernatants was effected by means of anti-human FX antiserum (FIG. 10A) and of a monoclonal antibody specific to the light chain of FX (FIG. 10B).
Data set [5] has as its system rFX. The data set is described as follows: FX activity by FX-Coatest-Kit (RVV activation, chromogenic substrate S-2337). The format is biochemical, human.
Method: For this, 50 μl of each supernatant were admixed with 50 μl of FX-deficient human plasma, and according to the protocol of the producer, rFX was reacted to rFXa with snake venom (RVV) in the presence of CaCl2 ; rFXa subsequently hydrolyses the chromogenic substrate (S-2337) and leads to the liberation of the yellow-coloured paranitroaniline. Since the amount of rFXa and the colour intensity are proportional to each other, the amount of rFX activatable to rFXa/ml cell culture supernatant can be determined with the help of a calibration straight line, interpolated from values of the plasma dilution series.

Consider “CHO-rvWF/r-furin: supernatant or cells of CHO clone co-expressing rvWF and complete recombinant human furin (r-furin), used as source of r-furin”, for which the “processing of pro-vWF in co-expressing cells” value was “significant amounts of pro-rvWF” in data set [1] (medium exchange every 8 hours, serum-free); “only the completely processed rvWF” in data set [1] (serum-free 24 hour cell culture supernatants); “completely processed” in data set [1] (serum-free 24 hour cell culture supernatants, listed as CHO rvWF/r-furin). Besides, the “in vitro processing of pro-rvWF in mixed supernatants” value in data set [2] (48 h and 96 h) is on record as “completely processed vWF”; in data set [2] (after 24 hours), “only a slight portion of unprocessed pro-vWF”. Moreover, in data set [3], the “Intensity of the fluorescent emission at 438 nm” value worked out at 444.

B1: CHO-r-furinΔCys-spacer-His: r-furinΔCys (to amino acid 585) with spacer Ala-Ala-Gly-Gly-Ala-Ala and six histidine residues; SEQ.ID.NO. 21 (protein)
chain: MELRPWLLWVVAATGTLVLLAADAQGQKVFTNTWAVRIPGGPAVANSVARKHGFLNLGQIFGDYYHFWHRGVTKRSLSPHRPRHSRLQREPQVQWLEQQVAKRRTKRDVYQEPTDPKFPQQWYLSGVTQRDLNVKAAWAQGYTGHGIVVSILDDGIEKNHPDLAGNYDPGASFDVNDQDPDPQPRYTQMNDNRHGTRCAGEVAAVANNGVCGVGVAYNARIGGVRMLDGEVTDAVEARSLGLNPNHIHIYSASWGPEDDGKTVDGPARLAEEAFFRGVSQGRGGLGSIFVWASGNGGREHDSCNCDGYTNSIYTLSISSATQFGNVPWYSEACSSTLATTYSSGNQNEKQIVTTDLRQKCTESHTGTSASAPLAAGIIALTLEANKNLTWRDMQHLVVQTSKPAHLNANDWATNGVGRKVSHSYGYGLLDAGAMVALAQNWTTVAPQRKCIIDILTEPKDIGKRLEVRKTVTACLGEPNHITRLEHAQARLTLSYNRRGDLAIHLVSPMGTRSTLLAARPHDYSADGFNDWAFMTTHSWDEDPSGEWVLEIENTSEANNYGTLTKFTLVLYGTAPEGLPVPPESSAAGGAAHHHHHH
modifications: spacer and His6 tag
notes: r-furinΔCys (to amino acid 585) with spacer Ala-Ala-Gly-Gly-Ala-Ala and six histidine residues; 21
As to B1, in data set [4], the “processing of rFX” value was “demonstrated”.

B2: r-furinΔTM-His: furin with transmembrane and cytoplasmatic part (amino acids 708 to 794) deleted, six histidine residues appended after amino acid 707; SEQ.ID.NO. 9 (protein)
chain: MELRPWLLWVVAATGTLVLLAADAQGQKVFTNTWAVRIPGGPAVANSVARKHGFLNLGQIFGDYYHFWHRGVTKRSLSPHRPRHSRLQREPQVQWLEQQVAKRRTKRDVYQEPTDPKFPQQWYLSGVTQRDLNVKAAWAQGYTGHGIVVSILDDGIEKNHPDLAGNYDPGASFDVNDQDPDPQPRYTQMNDNRHGTRCAGEVAAVANNGVCGVGVAYNARIGGVRMLDGEVTDAVEARSLGLNPNHIHIYSASWGPEDDGKTVDGPARLAEEAFFRGVSQGRGGLGSIFVWASGNGGREHDSCNCDGYTNSIYTLSISSATQFGNVPWYSEACSSTLATTYSSGNQNEKQIVTTDLRQKCTESHTGTSASAPLAAGIIALTLEANKNLTWRDMQHLVVQTSKPAHLNANDWATNGVGRKVSHSYGYGLLDAGAMVALAQNWTTVAPQRKCIIDILTEPKDIGKRLEVRKTVTACLGEPNHITRLEHAQARLTLSYNRRGDLAIHLVSPMGTRSTLLAARPHDYSADGFNDWAFMTTHSWDEDPSGEWVLEIENTSEANNYGTLTKFTLVLYGTAPEGLPVPPESSGCKTLTSSQACVVCEEGFSLHQKSCVQHCPPGFAPQVLDTHYSTENDVETIRASVCAPCHASCATCQGPALTDCLSCPSHASLDPVEQTCSRQSQSSRESPPQQQPPRLPPEVEAGQRLRAGHHHHHH
modifications: His6 tag
Take B2: in data set [2] (Ni2+ column, CHO-rvWF supernatant with 2 mM imidazole passed over, column eluate), the “processing of rpro-vWF on immobilized fusion protein” value is recorded as “only completely processed vWF”. Further, the Activity in data set [5] (t = 6 hours, supernatants 1:1, 37° C.) is given as 344 mU/ml. For the same molecule, the “% Functional FX” value in data set [5] (t = 6 hours, from activity and ELISA antigen) is 43%. Also, the “unspecific proteolytic activity (OD values) in mixture of CHO and CHO-r-furinΔTM-His supernatants” value in data set [5] (without rFX, % of the proteolytic activity) is on record as “less than 7%”. Also, the “INTENSITY (AMC peptide substrate test)” value was found to be 340 in data set [3] (1st washing fraction of Ni2+-NTA column); 280 in data set [3] (2nd washing fraction of Ni2+-NTA column); 121 in data set [3] (3rd washing fraction of Ni2+-NTA column); 2820 in data set [3] (eluate from Ni2+-NTA matrix (buffer A containing 200 mM imidazole)); 2664 in data set [3] (roller supernatant before binding to the Ni2+-NTA matrix). Also, the “Intensity of the fluorescent emission at 438 nm” value in data set [3] came to 2524.
